# Measurements as given in the supplement of paper PMC10724198.
# ± gives the standard deviation of the averaged measurements.
# Tested on: Saccharomyces cerevisiae
# Test: protein stability index of tFT-peptide fusion (C-terminal peptide) (PSI (0-1 scale)); higher = more stable (slower turnover)
# Details: genetic background: wild type; temperature: 30 C
# 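Also: PSI is a weighted mean of sequencing reads over stability bins, variants kept only with over 10 reads, mCherry proximal and sfGFP distal, peptide attached via GGGS linker.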
row,Sequence,protein stability index
1,PPQGPVAPRKTP,0.708 ± 0.018
2,PPQPTSPIRMPT,0.735 ± 0.03
3,PPRLASFYIILG,0.571
4,PPRLHPNTPPLL,0.765 ± 0.08
5,PPRPPGFPPALF,0.697 ± 0.018
6,PPRPPPHPAPLS,0.755 ± 0.019
7,PPRPPRPPYPPP,0.609 ± 0.024
8,PPRPPSPPASRA,0.77 ± 0.076
9,PPRSPPPTPPLF,0.611 ± 0.01
10,PPRVPCLVPKSR,0.715 ± 0.014
11,PPSAPPPLPPLL,0.7599 ± 0.0043
12,PPSAPPPSYHPP,0.607 ± 0.045
13,PPSDRPTVPPPP,0.709 ± 0.017
14,PPSFDPSPPSSL,0.696 ± 0.042
15,PPSGPTDTQEQG,0.661 ± 0.035
16,PPSLEPFSPSPR,0.639 ± 0.013
17,PPSLLPFDPSLP,0.708 ± 0.082
18,PPSLLRPYPLLS,0.66 ± 0.028
19,PPSLPPPPLSQP,0.68 ± 0.026
20,PPSLPRPPAFAP,0.689 ± 0.023
21,PPSPARFPPPSS,0.632 ± 0.015
22,PPSPHPPPSAPP,0.6411 ± 0.0028
23,PPSPLPPPPPHP,0.651 ± 0.079
24,PPSPPALPRFLL,0.697 ± 0.025
25,PPSPPAVISAGL,0.716 ± 0.066
26,PPSPPCHTVTSA,0.679 ± 0.054

row,Sequence,protein stability index
1,PPSPPHIHTYLT,0.6939 ± 0.0011
2,PPSPPPPLPPPA,0.6897 ± 0.0041
3,PPSPPPPPPRPP,0.64 ± 0.022
4,PPSPSPLPPRPL,0.717 ± 0.04
5,PPSRLYFLSPRS,0.746 ± 0.039
6,PPSRPPPRLLFA,0.659 ± 0.048
7,PPSSPPLAPPFL,0.709 ± 0.029
8,PPSSPPLQHPPP,0.598 ± 0.038
9,PPSSPPPPDSDR,0.6746 ± 0.0037
10,PPSTNRDGRKRT,0.644 ± 0.026
11,PPSWLPLLPPPP,0.688 ± 0.078
12,PPSYYPPPYLAF,0.653 ± 0.034
13,PPTLHVSPLCPL,0.607 ± 0.013
14,PPTPPCTSSPAR,0.739 ± 0.084
15,PPTPRLPPPRLP,0.67 ± 0.045
16,PPTQSRLPLPLL,0.674 ± 0.033
17,PPVISAPIPLAP,0.688 ± 0.052
18,PPVLRTPPAPLI,0.681 ± 0.058
19,PPVPPPSPPRLL,0.673 ± 0.03
20,PPVTAPPPPLRS,0.692 ± 0.014
21,PQAQCTALLTQR,0.659 ± 0.085
22,PQESRAWTLSSA,0.713 ± 0.05
23,PQPRDSLFSLGN,0.691 ± 0.032
24,PQRRPPASTRSD,0.682 ± 0.018
25,PQRTTPPRRHTA,0.717 ± 0.032
26,PQTPPSTLLLPP,0.61 ± 0.1

row,Sequence,protein stability index
1,PRALSMGGPRYQ,0.5929 ± 0.0021
2,PRAPPPSPPPRP,0.651 ± 0.04
3,PRCRSLPPLRVL,0.6975 ± 0.0037
4,PRDTTIPLVLGF,0.63756 ± 0.00037
5,PRFFTRYRCYSA,0.793 ± 0.064
6,PRFGADVQKLVG,0.653 ± 0.045
7,PRFPLPPHPSPR,0.704 ± 0.03
8,PRGKVLPFAFAC,0.554 ± 0.019
9,PRGLRIHSRLRG,0.678 ± 0.01
10,PRGPPGILSRPP,0.6736 ± 0.00089
11,PRGSSRSTFFLF,0.603 ± 0.046
12,PRHYSPPPVPSR,0.686 ± 0.026
13,PRIWDLVDIGTL,0.735 ± 0.022
14,PRLCLVAGRCRS,0.614 ± 0.04
15,PRLFLSICPFSF,0.682 ± 0.051
16,PRLPHPPPFDSL,0.676 ± 0.016
17,PRLPHPPPPLPL,0.669 ± 0.079
18,PRLPPRSPRPPA,0.7369 ± 0.0048
19,PRLVFSVSSLGL,0.7 ± 0.038
20,PRLVTLALPRTR,0.716 ± 0.015
21,PRPALRPLPVYP,0.612 ± 0.068
22,PRPAPPPPSTPP,0.6411 ± 0.0051
23,PRPCSPPPPDPC,0.703 ± 0.022
24,PRPFAPPPPPHD,0.808 ± 0.094
25,PRPHPPPLPCPP,0.714 ± 0.04
26,PRPLASRITSPA,0.692 ± 0.036

row,Sequence,protein stability index
1,PRPLPPPLPCPP,0.682 ± 0.015
2,PRPLPPPPPLST,0.654 ± 0.061
3,PRPLSPLPPSAL,0.66 ± 0.05
4,PRPPAGSFPSSL,0.7 ± 0.053
5,PRPPPPLPPFPP,0.6602 ± 0.0011
6,PRPPPPPPPLPP,0.692 ± 0.03
7,PRPPPPRPPFST,0.717 ± 0.01
8,PRPPPPSPIPPL,0.7265 ± 0.0018
9,PRPPSPPADPAP,0.744 ± 0.013
10,PRPPYPRPPPPP,0.725 ± 0.074
11,PRPSFRPPPPLP,0.722 ± 0.011
12,PRPSPPPVSPRP,0.74 ± 0.043
13,PRRPLSTPTPLV,0.666 ± 0.049
14,PRRPPSSLWPYP,0.669 ± 0.044
15,PRSAPPRRPPTP,0.753 ± 0.075
16,PRSPPPLPPSSL,0.705 ± 0.029
17,PRSPPPPLLSPP,0.692 ± 0.037
18,PRSPPSPPPPPS,0.641 ± 0.1
19,PRSPSLPPLFSP,0.718 ± 0.072
20,PRSSHHPLPSPP,0.676 ± 0.071
21,PRSTLLPRSSSC,0.654 ± 0.028
22,PRSVLGFKMGRF,0.715 ± 0.065
23,PRTPAPAPTPRP,0.682 ± 0.017
24,PRTRLPPQLRLP,0.694 ± 0.02
25,PRYKQSSFAFKK,0.669 ± 0.036
26,PRYSLPTLLSSR,0.678 ± 0.051

row,Sequence,protein stability index
1,PRYVQPQCLAQR,0.6721 ± 0.0051
2,PSAPPLSHPAPW,0.675 ± 0.047
3,PSAPRHLIPPPI,0.715 ± 0.07
4,PSAPTNPHARLA,0.689 ± 0.051
5,PSEAPEAPLPRP,0.731 ± 0.082
6,PSELGAGNVMGG,0.699 ± 0.027
7,PSFPSSSCTSPI,0.693 ± 0.1
8,PSGICVLSPRYG,0.7 ± 0.016
9,PSGLRNAHRHRT,0.719 ± 0.013
10,PSGPKAPPHAGR,0.6757 ± 0.0058
11,PSHPLSLFLLFL,0.58 ± 0.007
12,PSIPRTSTRPTL,0.706 ± 0.037
13,PSIPRTTLLSCN,0.607 ± 0.037
14,PSLDCMSIEETT,0.679 ± 0.017
15,PSLGLSIPTPLP,0.6849 ± 0.0046
16,PSLLFILPSPLP,0.689 ± 0.015
17,PSLPFPPTPPPC,0.686 ± 0.11
18,PSLPHSRPRTPT,0.707 ± 0.028
19,PSLPPVPPPPRP,0.71 ± 0.04
20,PSLSSHPALLFI,0.752 ± 0.038
21,PSNPTPLTLLLF,0.641 ± 0.017
22,PSPAPHIPIFFR,0.742 ± 0.079
23,PSPCPPRPPPSP,0.753 ± 0.1
24,PSPDLRAPSSVR,0.731 ± 0.024
25,PSPDPCPLGRTA,0.629 ± 0.067
26,PSPFSPPPPSSP,0.736 ± 0.028

row,Sequence,protein stability index
1,PSPGPPATRPAL,0.719 ± 0.0036
2,PSPICFYPLGAS,0.71 ± 0.034
3,PSPIHSRQTQWF,0.707 ± 0.015
4,PSPLPPPPLLPP,0.775 ± 0.28
5,PSPLPRPPPLPL,0.656 ± 0.039
6,PSPLRDLRSTAL,0.663 ± 0.031
7,PSPPFPPPPPPE,0.717 ± 0.047
8,PSPPLPPPAPLL,0.718 ± 0.056
9,PSPPLPPPPSGP,0.677 ± 0.067
10,PSPPLPPPYPLP,0.716 ± 0.084
11,PSPPLPPRPPTL,0.743 ± 0.013
12,PSPPPLPPLPPF,0.682 ± 0.029
13,PSPPPPAPRPPP,0.657 ± 0.03
14,PSPPPPGPPLAL,0.632 ± 0.033
15,PSPPPPLAPCLP,0.666 ± 0.038
16,PSPPPPPPPSVR,0.69 ± 0.042
17,PSPPPPPPTPAS,0.655 ± 0.024
18,PSPPPPTPPVRL,0.722 ± 0.11
19,PSPPPVLLPFFT,0.711 ± 0.08
20,PSPPSPPPPPPT,0.749 ± 0.06
21,PSPPTALCPPPL,0.68 ± 0.15
22,PSPPVPRPPPSP,0.647 ± 0.018
23,PSPPVRPPLPPP,0.652 ± 0.15
24,PSPRPPSPLFPP,0.685 ± 0.073
25,PSPRSGPPLASP,0.6896 ± 0.0012
26,PSPRSPPPSPPS,0.747 ± 0.12

row,Sequence,protein stability index
1,PSPSFPPPPLSR,0.721 ± 0.073
2,PSPSLPGRSASP,0.727 ± 0.0081
3,PSPSPPPPPPGL,0.681 ± 0.064
4,PSPTPTMPPPPP,0.71 ± 0.01
5,PSRPPGHPAPKP,0.761 ± 0.063
6,PSRSLSPSPPFS,0.691 ± 0.066
7,PSSAHLPPPPPP,0.673 ± 0.014
8,PSSAPPGSPGHL,0.701 ± 0.019
9,PSSAQKNPNPNT,0.701 ± 0.073
10,PSSLFPPPPSVL,0.685 ± 0.029
11,PSSLPPLSAPSS,0.6829 ± 0.0035
12,PSSPPCPPPLPS,0.624 ± 0.02
13,PSSPPPPPPPPH,0.71 ± 0.0097
14,PSSPPSLPSPLP,0.691 ± 0.065
15,PSSPPSSTSPPL,0.633 ± 0.16
16,PSSPSPPYPFAP,0.684 ± 0.016
17,PSSRSASSSSPA,0.705 ± 0.043
18,PSSSPPLLPPPA,0.638 ± 0.026
19,PSTLQPLQRSPR,0.617 ± 0.0014
20,PSVLPSSCTPSP,0.663 ± 0.03
21,PSWLPLPLLFLV,0.416 ± 0.18
22,PSYTSYFVGLST,0.48 ± 0.11
23,PTDVVCVSGHGS,0.748 ± 0.076
24,PTFPPPPRTPPS,0.719 ± 0.017
25,PTFRSRPFPPHP,0.703 ± 0.032
26,PTGCPPGVTPCL,0.681 ± 0.022

row,Sequence,protein stability index
1,PTLGDPSVLLLL,0.69 ± 0.022
2,PTLSPSPLAPLS,0.6635 ± 0.0018
3,PTNQHNLEQRPE,0.667 ± 0.05
4,PTPLSPRNTILR,0.726 ± 0.1
5,PTPPLPLPRPLP,0.688 ± 0.037
6,PTPPNSPRPPTP,0.63 ± 0.12
7,PTPPPLLTRPLP,0.709 ± 0.11
8,PTSLPAPPRLPF,0.713 ± 0.023
9,PTSPPPPLPPPS,0.7066 ± 0.0036
10,PTVLCTGKCLRS,0.635 ± 0.044
11,PVAGSAGVRNLP,0.671 ± 0.012
12,PVAGTLDVHYRV,0.7098 ± 0.0063
13,PVAPKPTGAKTP,0.661 ± 0.06
14,PVCDPCSKATLL,0.687 ± 0.015
15,PVDAAPCSPSGL,0.663 ± 0.041
16,PVDPPEDLNTRS,0.7098 ± 0.0064
17,PVFSHTDSRYRP,0.681 ± 0.09
18,PVGFPLPCPFFT,0.688 ± 0.035
19,PVKTHPPPPPLP,0.724 ± 0.024
20,PVLELTLILRRS,0.6304 ± 0.0023
